Results from doi:10.1101/758409.

Columns and labels:
[1] = biological target: DDA1-DDB1ΔB-DCAF15Δpro triplex (human) (UniProt Q66K64); test: BLI
[2] = biological target: DDA1-DDB1ΔB-DCAF15Δpro triplex (human) (UniProt Q66K64); test: ITC

RRM1-RRM2 domain of RBM39 (R1R2), sequence (Q14498 150-331): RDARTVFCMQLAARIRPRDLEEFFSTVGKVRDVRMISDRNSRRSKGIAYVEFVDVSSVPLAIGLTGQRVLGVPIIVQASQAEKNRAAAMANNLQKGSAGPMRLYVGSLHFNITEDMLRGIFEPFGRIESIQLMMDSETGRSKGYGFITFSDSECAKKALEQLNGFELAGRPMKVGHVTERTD

Kd [1] [µM] | Kd [2] [µM] | Substance
1.2 |  | R1R2(M265L) (from UniProt Q14498 150-331) (domain or fragment)
4.6 | 6.4 | RRM1-RRM2 domain of RBM39 (R1R2) (from UniProt Q14498 150-331) (domain or fragment)
